Laboratory results: patent publication US20100092460A1 (Ablynx, published 2010)

B10: recombinant human CXCL11/I-TAC (ligand, UniProt O14625 22-94, looked up)
chain: FPMFKRGRCLCIGPGVKAVKVADIEKASIMYPSNNCDKIEVIITLKENKGQRCLNPKSKQARLIIKKVERKNF
modifications: biotinylated in the ELISA; 125I label in the radioligand assays

Assays:
[1] = molecular target: B10; assay: cell-based or functional assay
[2] = molecular target: B10; assay: inhibition of 125I-CXCL11 (46 pM) binding to hCXCR3 on HEK293T cells; radioligand preincubated with purified Nanobody
[3] = molecular target: B10; assay: inhibition of 125I-CXCL11 binding to hCXCR3 (HEK293T cells), 10x diluted periplasm; ELISA grade at the label
[4] = molecular target: B10; assay: as above; remark: listed apart in the source
[5] = molecular target: B10; assay: ELISA, Nanobody captured by coated anti-myc antibody, biotinylated CXCL11, streptavidin-HRP
[6] = molecular target: T1, hCXCR3 (human, UniProt P49682 1-368); assay: competition of unlabeled CXCL11 with 125I-CXCL11 on HEK293T cells with hCXCR3
T1 construct: whole, on cells
T1 sequence (looked up): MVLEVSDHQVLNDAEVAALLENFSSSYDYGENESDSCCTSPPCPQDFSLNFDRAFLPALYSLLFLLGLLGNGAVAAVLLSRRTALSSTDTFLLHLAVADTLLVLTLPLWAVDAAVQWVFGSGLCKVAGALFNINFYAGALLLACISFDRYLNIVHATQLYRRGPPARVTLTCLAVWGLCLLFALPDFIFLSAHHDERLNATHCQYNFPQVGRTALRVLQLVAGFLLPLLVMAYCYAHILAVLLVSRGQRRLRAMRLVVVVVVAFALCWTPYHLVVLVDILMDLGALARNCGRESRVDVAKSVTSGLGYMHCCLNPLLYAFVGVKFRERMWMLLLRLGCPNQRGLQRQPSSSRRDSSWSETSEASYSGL

[7] = molecular target: B10; assay: inhibition of 125I-CXCL11 binding to hCXCR3 (HEK293T cells), purified Nanobody
[8] = molecular target: T2, recombinant human CCL2/MCP1 (human, UniProt P13500 24-99, 125I label in the radioligand assays); assay: inhibition of 125I-CCL2 (59 pM) binding to HA3-CCR2 on HEK293T cells; radioligand preincubated with purified Nanobody
T2 construct: Immunogen and selection antigen was the Mucin stalk Chimera (R&D 979-MC/CF)
T2 sequence (P13500 24-99 limits assumed): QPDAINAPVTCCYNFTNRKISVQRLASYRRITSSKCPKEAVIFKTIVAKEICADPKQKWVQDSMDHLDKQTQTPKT

[9] = molecular target: T2, recombinant human CCL2/MCP1; assay: inhibition of 125I-CCL2 binding to hCCR2 (HEK293T cells), purified Nanobody
[10] = molecular target: T3, recombinant human CCL5/RANTES (Mucin stalk Chimera) (human, UniProt P13501 24-91, biotinylated in the ELISA); assay: ELISA, periplasmic extract on biotinylated mucin-CCL5 on neutravidin, anti-myc detection
T3 construct: also called mucin-CCL5; not shown: mucin stalk of the chimera (R&D 978-RN/CF); origin, limits and order not described
T3 sequence (looked up): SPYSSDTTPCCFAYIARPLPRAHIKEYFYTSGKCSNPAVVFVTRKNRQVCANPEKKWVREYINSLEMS

[11] = molecular target: T4, CCL5 (UniProt P13501 24-91, 125I label); assay: inhibition of 125I-CCL5 binding to hCCR1 (HEK293T cells), purified Nanobody
T4 construct: also called RANTES
T4 sequence (looked up): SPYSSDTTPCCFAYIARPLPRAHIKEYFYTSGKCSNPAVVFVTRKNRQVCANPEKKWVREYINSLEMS

[12] = molecular target: T4, CCL5; assay: inhibition of 125I-CCL5 (56 pM) binding to CCR1 on HEK293T cells; radioligand preincubated with purified Nanobody

B1: Nanobody 11B2 (VHH)
VHH: EVQLVESGGGLVQAGGSLRLSCAASGFTFDDYAMCWFRQAPGKEREGVSCISSSDGSTYYADSVKGRFTISSDNAKNTVYLHMNSLKPEDTAVYYCAAAQGVVAGASLVWVPLDEYDYWGQGTQVTVSS
notes: llama VHH against CXCL11; purified; not shown: C-terminal c-myc tag and (His)6 tag coded by the vector
With B1 the “inhibition of CXCL11-induced PLC activation (3H-inositol phosphate accumulation, HEK293T cells with CXCR3 and G-alpha-qi5), pIC50” value (from here on “inhibition”) [1] was 7.6 and the pIC50 [2] was 9.1.

B2: Nanobody 11B1 (VHH)
VHH: EVQLVESGGGLVQAGGSLRLSCAASGFTFDDYTIGWFRQAPGKEREGVSCISSSDGSTYYADSVKGRFTISSDNVKNTVYLQMNSLKPEDTAVYYCAASLGFLTAQCMGVMSIGLSEYDYWGQGTQVTVSS
notes: as for B1
With B2 the “inhibition” value [1] was 7.8 and the pIC50 [2] was 9.6.

B3: Nanobody 11A7 (VHH)
VHH: EVQLVESGGGLVQAGGSLRLSCAASGFTFDDYAIGWFRQAPGKEREGVSIISSSDGSTYYADSVKGRFTISSDNAKNTVYLQMNSLKPEDTAVYYCAAGQGWVIATMTSFRAHREYDYWGQGTQVTVSS
notes: llama VHH against CXCL11; also called 11E10; 11E11; not shown: C-terminal c-myc tag and (His)6 tag coded by the vector
B3: binds [3].

B4: Nanobody 11B7 (VHH)
VHH: EVQLVESGGGLVQAGGSLRLSCAASGFNFDDYAIGWFRQAPGKEREGVSIISSSDGNTYYADSVKGRFTISSDNAKNTVYLQMNSLKPEDTAVYYCAAGQGWVIATMTSFRAHREYDYWGQGTQVTVSS
notes: as for B1
In the case of B4, the “inhibition” value [1] is reported as 7.9 and the pIC50 [2] is reported as 9.6.

B5: Nanobody 11E7 (VHH)
VHH: EVQLVESGGGLVQAGGSLRLSCAASGFTFDDYAIGWFRQAPGKEREGVSIISSSDGTTYYADSVKGRFTISTDNAKNTVYLQMNSLKPEDTAVYYCAAGQGWVIATMTSFRAHREYDYWGQGTQVTVSS
notes: llama VHH against CXCL11; not shown: C-terminal c-myc tag and (His)6 tag coded by the vector
B5: binds [4].

B6: Nanobody 11F10 (VHH)
VHH: EVQLVESGGGLVQAGGSLRLSCAASGFTLDDYAIGWFRQAPGKEREGVSCISSSDGSTYYADSVKGRFTISSDNAKNTVYLQMNSLKPEDTAVYYCAAGQGVLRLWVLSSSSYDYWGQGTQVTVSS
notes: as for B5
B6: binds [4].

B7: Nanobody 38C6 (VHH)
VHH: EVQLVESGGGLVQAGGSLRLSCAASGFTFDDYAIGWFRQAPGKEREGVSCCSSSDGSTYYADSVKGRFTISSDNAKNTVYLQMNSLKPEDTAVYYCAATQGLTIATMWNPVSYDYWGQGTQVTVSS
notes: as for B5
B7: binds [5].

B8: Nanobody 38G6 (VHH)
VHH: EVQLVESGGGLVQAGGSLRLSCEASGFTFDDYAIGWFRQAPGKEREGVSCCSSSDGSTYYADSVKGRFTISSDNAKNTVYLQMNSLKPEDTAVYYCAATQGLLIATMWNPASYDYWGQGTQVTVSS
notes: as for B5
B8: binds [5].

B9: Nanobody 11G10 (VHH)
VHH: EVQLVESGGGLVQPGGSLRLSCAASGFTLDDYAIGWFRQAPGKEREGVSSISSSDGRTYYADSVKGRFAISRDNAKNTVYLQMNSLKPEDTAVYYCAADQGVVAYDALRPYRWLEVWGQGTLVTVSS
notes: as for B5
B9: binds [4].

B10: binds [6].

B11: Nanobody 11G9 (VHH)
VHH: EVQLVESGGGLVQPGGSLRLSCAASGGTLDDYVIGWFRQAPGKEREGVSCISSTDGSTYYADSVKGRFTISRDNAKNTVYLQVNSLKPEDTAVYYCAAGMGVLRQWALSKLSYDYWGQGTQVTVSS
notes: as for B5
B11: binds [7].

B12: Nanobody 8E10 (VHH)
VHH: EVQLVESGGGLVQAGDSLRLSCAASGRTFSSYRMGWFRQAPGKEREFVAAISRSGASAYYADSVKGRFTCSRDNAKDTVYLQMNKLKPEDTAVYYCAASSRMGVDDPETYGYWGQGTQVTVSS
notes: llama VHH against CCL2; purified; not shown: C-terminal c-myc tag and (His)6 tag coded by the vector
In the case of B12, the pIC50 [8] is reported as 8.7.

B13: Nanobody 8A3 (VHH)
VHH: EVQLVESGGGLVQAGGSLRLSCVASGLTFSTYSMGWFRQAPGKEREFVAAINGGGSSTTYADSVKGRFTISRDNAKNTVYLQMNSLKPEDTAVYSCAVKMYSGSYSSPPGYNYWGQGTQVTVSS
notes: llama VHH against CCL2; not shown: C-terminal c-myc tag and (His)6 tag coded by the vector
B13: binds [9].

B14: Nanobody 8D3 (VHH)
VHH: EVQLVESGGGLVQAGGSLRLSCAASGRTFSNYAMGWFRQAPGKEREFVAAISWSDGSTYYADSVKGRFTISRDNAKNTVYLLMNSLNPEDTAVYYCAADLLAEDPAAPSRGYDYWGQGTQVTVSS
notes: as for B13
B14: binds [9].

B15: Nanobody 10E8 (VHH)
VHH: EVQLVESGGGLVQAGGSLRLSCAASGRTFSSYYMGWFRQAPGKEREFVARIGWSSGSTYYADSMKGRFTISRDNAKNTVYLQMNSLKPEDTAVYYCAAAPRYTLATVTYDYDYWGQGTQVTVSS
notes: llama VHH against CCL5; purified; not shown: C-terminal c-myc tag and (His)6 tag coded by the vector
B15: binds [10]; binds [11].

B16: Nanobody 17B11 (VHH)
VHH: EVQLVESGGGLVQAGGSLRLSCAASGFNFDDYAIGWFRQAPGKEREGVSCISSSDGSTYSADSVKGRFTISSDNAKNTVYLQMNNLNPEDTAAYYCAAAPPDCTYYPATPIYYWGQGTQVTVSS
notes: as for B15
B16 was tested, and the pIC50 [12] was 9.

B17: Nanobody 10A12 (VHH)
VHH: EVQLVESGGGLVQAGGSLRLSCAASGFTFDDYAIGWFRQVPGKERKGVSCISSSDGTTYYEDSVKGRFTISSDNAKNTIYLQMNSLKPEDTAVYYCAAAPPDCTYYPATPIYYWGQGTQVTVSS
notes: as for B15
B17: binds [10]; binds [11].

B18: Nanobody 11D9 (VHH)
VHH: EVQLVESGGGLVQAGGSLRLSCAASGFTFDDYPIGWFRQAPGKEREGISCISSSDGSTYYADSVKGRFTISSDNAKNTVYLQMNSLKPEDTAVYYCAAGLGALVRYYSGSYYCDGMDYWGKGTLVTVSS
notes: as for B5
B18: binds [4].

B19: Nanobody 8E3 (VHH)
VHH: EVQLVESGGGLVQAGGSLRLSCAASGGTFSSYRMGWFRQAPGKEREFVTLISRSGGTTDYTDSVKGRFTISRDNAKNTVSLQMNNLKPADTAVYYCAAAGSMGWNHLRDYDYWGQGTQVTVSS
notes: as for B12
Binder B19 has a pIC50 [8] of 9.

B20: Nanobody 38E6 (VHH)
VHH: EVQLVESGGGLAQPGGSLRLSCAASGFTFSSYAMSWVRQAPGKGLEWVSAINSGGGSTSYADSVKGRFTISRDNAKNTLYLQMNSLKPEDTAVYYCQRGDYEFEPLEYDYWGQGTQVTVSS
notes: as for B5
B20: binds [5].

B21: Nanobody 10C8 (VHH)
VHH: EVQLVESGGGLVQAGDSLRLSCATSGRTFTMDGMGWFRQAPGKEREFVATISRSGVGTFYADSVKGRFTISRDNAKNMVYLQMNSLKPEDTALYYCAARPDYTLGTSSYDYDSWGQGTQVTVSS
notes: llama VHH against CCL5; purified; also called 10D8; 10E9; not shown: C-terminal c-myc tag and (His)6 tag coded by the vector
In the case of B21, the pIC50 [12] is reported as 9.3.
